The text below walks through data of patent US20090011988A1 (Genentech, published 2009).

Assay [1] concerns the target recombinant human IGFBP-3 (human, UniProt P17936 28-291). As to the kind of experiment: competitive phage ELISA. The procedure: (§1) E. coli cells (XL1-Blue, Stratagene) freshly transformed with phagemid vector were grown overnight in 5 mL 2YT medium (Sambrook et al., supra) in the presence of M13-VCS helper phage (Stratagene). Phage particles were harvested and resuspended in PBS buffer as described in Lowman, H. B., “Phage Display of Peptide Libraries on Protein Scaffolds,” in Cabilly, S. (ed.), Combinatorial Peptide Library Protocols (Humana Press Inc.: Totowa, N.J., 1998), pp. 249-264. Then phage concentrations were normalized to yield a maximal ELISA signal of 0.2-0.4 for each mutant (Lowman, in Cabilly, S. (ed.), supra). Threefold serial dilutions of soluble competitor were prepared on non-absorbent microtiter plates (Nunc, F, 96 wells) with binding buffer (0.5% TWEEN 20%/PBS) containing phage at the previously determined concentrations. […] After blocking, the plates containing immobilized target were washed with 0.05% TWEEN™/PBS buffer and subsequently incubated with 80 μl/well of the premixed phage-competitor solutions for 1 hour at room temperature. […] IC₅₀ values were determined by fitting the binding data to a generic saturation curve (Lowman, in Cabilly, S. (ed.), supra). At least two individual clones of each IGF-1 mutant were assayed. Numbers in Table XIII represent mean±standard deviation of individually assessed IC₅₀ values.
For orientation: In an ELISA, binding on a coated surface is turned into a signal by an enzyme label.

Assay [2] has as its target T1, human IGFBP-1 (human, UniProt P08833 26-259).
T1 sequence (looked up): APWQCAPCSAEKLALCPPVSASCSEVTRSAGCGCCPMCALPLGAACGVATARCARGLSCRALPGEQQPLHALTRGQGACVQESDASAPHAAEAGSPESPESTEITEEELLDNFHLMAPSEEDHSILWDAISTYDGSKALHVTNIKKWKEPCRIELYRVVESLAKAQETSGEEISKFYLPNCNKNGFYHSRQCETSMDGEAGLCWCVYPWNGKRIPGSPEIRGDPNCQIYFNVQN
As to the kind of experiment: competitive phage ELISA. The procedure: as §1

recombinant human IGFBP-3, sequence (P17936 28-291 limits assumed): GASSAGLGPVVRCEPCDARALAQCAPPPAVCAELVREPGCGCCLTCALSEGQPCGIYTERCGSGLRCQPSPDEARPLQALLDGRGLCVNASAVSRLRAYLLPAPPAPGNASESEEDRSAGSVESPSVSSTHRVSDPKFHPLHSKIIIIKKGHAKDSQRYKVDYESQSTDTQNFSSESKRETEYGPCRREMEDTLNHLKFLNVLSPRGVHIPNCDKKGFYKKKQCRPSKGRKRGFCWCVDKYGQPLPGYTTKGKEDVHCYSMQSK

Take “IGF-1 V17A displayed on phage (from UniProt P69168 267-424) (ligand)”: the 50% inhibitory concentration (IC50) was found to be 3.67 nM in assay [1] and 42.9 nM in assay [2]. The relative IC50 (mut/G1S-A70V) was 4.9 in assay [1] and 5.2 in assay [2].
With “IGF-1 P28A displayed on phage (from UniProt P69168 267-424) (ligand)”, in assay [1], the IC50 was found to be 1.41 nM and the relative IC50 (mut/G1S-A70V) is 1.9.
“IGF-1 D20A displayed on phage (from UniProt P69168 267-424) (ligand)”: in assay [1], the IC50 was found to be 1.11 nM and the relative IC50 (mut/G1S-A70V) was 1.5.
On to “IGF-1 F25A displayed on phage (from UniProt P69168 267-424) (ligand)”, for which the IC50 in assay [1] was determined as 3.69 nM; in assay [2] it was 181 nM. For the same molecule, the relative IC50 (mut/G1S-A70V) came to 4.9 in assay [1] and 22.1 in assay [2].
In assay [2], “IGF-1 D12A displayed on phage (from UniProt P69168 267-424) (ligand)” yielded an IC50 of 4.3 nM and a relative IC50 (mut/G1S-A70V) of 0.5.
In assay [2], “IGF-1 L14A displayed on phage (from UniProt P69168 267-424) (ligand)” came in with an IC50 of 36.7 nM and a relative IC50 (mut/G1S-A70V) of 4.5.
Regarding “IGF-1 G22A displayed on phage (from UniProt P69168 267-424) (ligand)”, in assay [1], the concentration for half-maximal inhibition (IC50) stood at 2.07 nM and the relative IC50 (mut/G1S-A70V) was 2.8.
As to “IGF-1 Q15A displayed on phage (from UniProt P69168 267-424) (ligand)”, the relative IC50 (mut/G1S-A70V) in assay [1] came to 1.7.
As for “IGF-1 F23A displayed on phage (from UniProt P69168 267-424) (ligand)”, in assay [1], the IC50 was found to be 2.18 nM and the relative IC50 (mut/G1S-A70V) was 2.9.
As to “IGF-1 L10A displayed on phage (from UniProt P69168 267-424) (ligand)”, in assay [1], the IC50 was 3.55 nM and the relative IC50 (mut/G1S-A70V) amounted to 4.7. In assay [2], this molecule had an IC50 of 311 nM and a relative IC50 (mut/G1S-A70V) of 37.9.
For “IGF-1 Y24A displayed on phage (from UniProt P69168 267-424) (ligand)”, in assay [1], the IC50 is 2.53 nM and the relative IC50 (mut/G1S-A70V) was found to be 3.4.

B1: IGF-1 D45A displayed on phage (ligand, not shown: large carriers; small tags and cut ends)
chain: SPETLCGAELVDALQFVCGDRGFYFNKPTGYGSSSRRAPQTGIVAECCFRSCDLRRLEMYCAPLKPAKSV
notes: G1S-A70V background
Regarding B1, the figures for the half-inhibitory concentration (IC50) in assay [1] and in assay [2] were 0.69 nM and 4.7 nM, respectively.

B2: IGF-1 E58A displayed on phage (ligand, not shown: large carriers; small tags and cut ends)
chain: SPETLCGAELVDALQFVCGDRGFYFNKPTGYGSSSRRAPQTGIVDECCFRSCDLRRLAMYCAPLKPAKSV
modifications: ends and bridges not checked; also: displayed on M13 phage, fused to g3p fragment (249-406) via amber-codon residue
notes: G1S-A70V background
Turning to B2, the IC50 came to 1.03 nM in assay [1] and 11.9 nM in assay [2].

B3: IGF-1 D53A displayed on phage (ligand, not shown: large carriers; small tags and cut ends)
chain: SPETLCGAELVDALQFVCGDRGFYFNKPTGYGSSSRRAPQTGIVDECCFRSCALRRLEMYCAPLKPAKSV
modifications: ends and bridges not checked; also: displayed on M13 phage, fused to g3p fragment (249-406) via amber-codon residue
notes: G1S-A70V background
As to B3, the IC50 in assay [1] was determined as 1.05 nM; in assay [2], 15.3 nM.

B4: IGF-1 F49A displayed on phage (ligand, not shown: large carriers; small tags and cut ends)
chain: SPETLCGAELVDALQFVCGDRGFYFNKPTGYGSSSRRAPQTGIVDECCARSCDLRRLEMYCAPLKPAKSV
notes: G1S-A70V background; also called IGF-F49A phage
On to B4, for which the IC50 in assay [1] stood at 2.72 nM. The molecule further showed a relative IC50 (mut/G1S-A70V) in assay [2] above 100.

B5: IGF-1 E46A displayed on phage (ligand, not shown: large carriers; small tags and cut ends)
chain: SPETLCGAELVDALQFVCGDRGFYFNKPTGYGSSSRRAPQTGIVDACCFRSCDLRRLEMYCAPLKPAKSV
notes: G1S-A70V background
Regarding B5, the IC50 came out at 0.94 nM in assay [1] and 7.9 nM in assay [2].

By IC50 is commonly meant the concentration that gives 50% inhibition.
